This note sets out measurements from PMC3749969.

For test [1], the target named is Merkel cell polyomavirus major capsid protein VP1 (native virions, isolate R17b) (Merkel cell polyomavirus (MCV), isolate R17b). Kind of test: co-sedimentation; purified native virions and high-VP2 pseudovirions; SDS-PAGE, SYPRO Ruby stain, densitometry against BSA standards; apparent ratio.
Test [2] addresses Merkel cell polyomavirus major capsid protein VP1 (pseudovirions, codon-modified gene) (Merkel cell polyomavirus (MCV)). The test is described as above.

“Merkel cell polyomavirus minor capsid protein VP2 (native virions, isolate R17b) (natural protein)”: the stoichiometry N (VP2 per 5 VP1) in test [1] was 2. Take “Merkel cell polyomavirus minor capsid protein VP2 (pseudovirions, codon-modified gene) (natural protein)”: the stoichiometry N (VP2 per 5 VP1) in test [2] came out at 1.4.
